The results in this text go back to patent US20080166375A1.

The assay concerns the target urokinase-type plasminogen activator receptor (human) (UniProt Q03405). As to the kind of experiment: cell-based or functional assay.

Sequence of urokinase-type plasminogen activator receptor (human) (Q03405 23-305): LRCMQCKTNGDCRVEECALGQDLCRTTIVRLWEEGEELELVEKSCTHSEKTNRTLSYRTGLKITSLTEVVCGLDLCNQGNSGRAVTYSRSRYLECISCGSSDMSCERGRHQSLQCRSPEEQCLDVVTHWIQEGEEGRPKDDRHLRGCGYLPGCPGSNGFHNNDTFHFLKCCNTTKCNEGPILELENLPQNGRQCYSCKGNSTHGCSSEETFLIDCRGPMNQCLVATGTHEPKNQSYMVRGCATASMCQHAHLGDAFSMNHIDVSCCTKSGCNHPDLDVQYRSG

“DTAT (from UniProt P00588 33-422; P00749 21-155)”: the IC50, 3H-thymidine incorporation inhibition, HUV-EC, DTAT was 0.0268 nM.
